Substitutions are numbered along the chain they refer to.
Tests used:
Gli1 = test: 4-HT-dependent intein splicing in the Gli1 context in HEK293 cells; type: cell-based, human; details: 1 μM 4-HT
Description: (§1) p3XFlag-CMV-14 (Sigma) vectors with Gli1-intein (2-4 and 3-2), and Gli3T-intein (2-4 and 3-2) sequences were previously described (Yuen et al., 2006). p3XFlag-CMV-14 mCherry-intein (2-4 and 3-2) vectors were constructed by cloning the 2-4 and 3-2 intein sequences into the pRSET-B mCherry vector provided by Professor Roger Tsien (University of California at San Diego). The mCherry-intein 2-4 and mCherry-intein 3-2 sequences were then amplified using oligonucleotides introducing a 5′ EcoRI site and a 3′ BamHI site and ligated into EcoRI- and BamHI-digested p3XFlag-CMV-14 vector. 30R3-1 intein sequence and 37R3-2 intein sequence were amplified using the following oligonucleotides compatible with mCherry, Gli1, or Gli3 contexts.

Gli3T = test: 4-HT-dependent intein splicing in the Gli3T context in HEK293 cells; type: cell-based, human; details: 1 μM 4-HT
Description: as §1

GFP [1] = details: HEK293, 37° C.
GFP [2] = details: yeast
mCherry = test: 4-HT-dependent intein splicing in the mCherry context in HEK293 cells; type: cell-based, human; details: for spliced mCherry protein: HEK293, 37° C., 1 μM 4-HT
Description: as §1
HEK293 cells were grown in 10 cm dishes or 6-well plates and transfected with relevant mammalian vectors using Effectene. After growth in the absence of 4-HT or in the presence of 1 μM 4-HT for 24 hours, cells were trypsinized and resuspended in 500 μL of phosphate buffered saline with 1% FBS and 75 U/mL DNase (New England Biolabs). Cell fluorescence analysis was carried out on a BD LSRII cell analyzer.

[3] = test system: GFP, mCherry, Gli1, and Gli3T; test: Intein splicing across all four proteins tested in mammalian cells; details: no 4-HT
Description: Western blots were performed using Nu-PAGE 12% Bis-Tris gels (Invitrogen) in 3-(Nmorpholino) propanesulfonic acid (MOPS)-sodium dodecyl sulfate (SDS) buffer (Invitrogen). SDSpolyacrylamide gel electrophoresis (PAGE) and Western blotting were performed using standard protocols. Gels were transferred onto polyvinylidene fluoride (PDVF) membranes (Millipore). Western blots were processed using a mouse anti-FLAG antibody (Sigma) as the primary antibody and a secondary Alexa Fluor 800-conjugated goat anti-mouse antibody (Li-cor Biosciences), then visualized and quantitated using an Odyssey imager (Li-cor Biosciences). […]
The inteins were inserted into mCherry, a red fluorescent protein, in place of Thr 113, the residue in mCherry that corresponds to the Cys residue used for intein insertion in GFP. As in the case of GFP, this placement positions the intein near the mid-point of a β-strand and abolishes mCherry fluorescence until splicing takes place (vide infra). […]
The splicing characteristics of the newly evolved inteins was investigated in the contexts of two additional mammalian proteins, Gli1 and Gli3T. […] The resulting constructs were introduced into HEK293 cells and splicing was evaluated by Western blot as described above.

[4] = HEK293, at 24 hours or 12 hours

B1: 3-2: previously evolved parental 4-HT-dependent intein, derived from the 2-4 intein (protein)
chain: CLAEGTRIFDPVTGTTHRIEDVVDGRKPIHVVAVAKDGTLLARPVVSWFDQGTRDVIGLRIAGGAIVWATPDHKVLTEYGWRAAGELRKGDRVAGPGGSGNSLALSLTADQMVSALLDAEPPILYSEYDPTSPFSEASMMGLLTNLADRELVHMINWAKRVPGFVDLTLHDQAHLLECAWLEILMIGLVWRSMEHPGKLLFAPNLLLDRNQGKCVEGMVEIFDMLLATSSRFRMMNLQGEEFVCLKSIILLNSGVYTFLSSTLKSLEEKDHIHRALDKITDTLIHLMAKAGLTLQQQHQRLAQLLLILSHIRHMSNKGMEHLYSMKYTNVVPLYDLLLEMLDAHRLHAGGSGASRVQAFADALDDKFLHDMLAEELRYSVIREVLPTRRARTFDLEVEELHTLVAEGVVVHNC
For B1, the Gli1 protein spliced (Gli1; HEK293, after 12 hours) was 22%, the Gli1 protein spliced (Gli1; HEK293, after 24 hours) was 32% and the “spliced Gli3T protein” value (Gli3T; HEK293, after 12 hours) was 10%. The “spliced Gli3T protein” value (Gli3T; HEK293, after 24 hours) was 18%, the “fraction of the total spliced GFP after 24 hours that was present after 12 hours” value (GFP [1]; 1 μM 4-HT) was 45% and the “spliced GFP” value (GFP [1]; after 24 hours, 1 μM 4-HT) was 33%. The “splicing in the absence of 4-HT (background splicing)” value (GFP [2]; 30° C., after 24 hours, no 4-HT) was 15% and the spliced protein (GFP [2]; 37° C., 1 hour after 4-HT treatment) was “did not generate significant amounts of spliced protein”.

B2: 37R3-2: evolved 4-HT-dependent intein, clone from 37° C. evolution, Round 3 (protein)
chain: B1 chain with V34A, I66T, C178R, T328K
In the case of B2, the “spliced mCherry protein” value (mCherry; after 12 hours) is reported as 43%, the “spliced mCherry protein” value (mCherry; after 24 hours) is reported as 72% and the “fold higher percentage of spliced mCherry than that of 3-2 intein” value (mCherry; [4]) is reported as ~3 fold. For the same molecule, the “fold higher percentage of spliced mCherry than that of the 2-4 intein” value (mCherry; [4]) was ~5 fold, the “background splicing in the absence of 4-HT” value (GFP [1]; GFP context, no 4-HT) was “not observed” and the “fold higher GFP splicing efficiency than the original 2-4 intein” value (GFP [1]; after 24 hours, 1 μM 4-HT) was 3.8 fold. For the same molecule, the “fold higher GFP splicing efficiency than the original 3-2 intein” value (GFP [1]; after 24 hours, 1 μM 4-HT) was 2.2 fold, the “spliced GFP” value (GFP [1]; after 24 hours, 1 μM 4-HT) was 73% and the “background splicing in the absence of 4-HT” value [3] was “very low and often was not detectable”.

— patent publication US9200045B2, “Small molecule-dependent inteins and uses thereof” (President and Fellows of Harvard College, priority 2011, dated 2015)
